Results as given in patent publication US20250092100A1.

Tests used:
GST-Ran = GST-Ran (UniProt P62826); assay: GST pull-down, GST-Ran bait, lysate of tsA201 cells with FLAG-MOG1 as prey, anti-FLAG Western blot quantified
HA-tagged Ran = HA-tagged Ran (UniProt P62826); assay: co-immunoprecipitation in tsA-201 cells, HA antibody pull-down of HA-Ran, anti-FLAG Western blot quantified

Substance: E50K MOG1 mutant tagged with FLAG (from UniProt Q9HD47 1-186)
- reduction of binding to Ran compared with the wild-type MOG1 (GST-Ran): 95%
- reduction of binding to Ran compared with the wild-type MOG1 (HA-tagged Ran): 92%
